# B1: E3 ubiquitin-protein ligase CBL-B (Homo sapiens), Q13191 (parent)
# chain: MANSMNGRNPGGRGGNPRKGRILGIIDAIQDAVGPPKQAAADRRTVEKTWKLMDKVVRLCQNPKLQLKNSPPYILDILPDTYQHLRLILSKYDDNQKLAQLSENEYFKIYIDSLMKKSKRAIRLFKEGKERMYEEQSQDRRNLTKLSLIFSHMLAEIKAIFPNGQFQGDNFRITKADAAEFWRKFFGDKTIVPWKVFRQCLHEVHQISSGLEAMALKSTIDLTCNDYISVFEFDIFTRLFQPWGSILRNWNFLAVTHPGYMAFLTYDEVKARLQKYSTKPGSYIFRLSCTRLGQWAIGYVTGDGNILQTIPHNKPLFQALIDGSREGFYLYPDGRSYNPDLTGLCEPTPHDHIKVTQEQYELYCEMGSTFQLCKICAENDKDVKIEPCGHLMCTSCLTAWQESDGQGCPFCRCEIKGTEPIIVDPFDPRDEGSRCCSIIDPFGMPMLDLDDDDDREESLMMNRLANVRKCTDRQNSPVTSPGSSPLAQRRKPQPDPLQIPHLSLPPVPPRLDLIQKGIVRSPCGSPTGSPKSSPCMVRKQDKPLPAPPPPLRDPPPPPPERPPPIPPDNRLSRHIHHVESVPSRDPPMPLEAWCPRDVFGTNQLVGCRLLGEGSPKPGITASSNVNGRHSRVGSDPVLMRKHRRHDLPLEGAKVFSNGHLGSEEYDVPPRLSPPPPVTTLLPSIKCTGPLANSLSEKTRDPVEEDDDEYKIPSSHPVSLNSQPSHCHNVKPPVRSCDNGHCMLNGTHGPSSEKKSNIPDLSIYLKGDVFDSASDPVPLPPARPPTRDNPKHGSSLNRTPSDYDLLIPPLGEDAFDALPPSLPPPPPPARHSLIEHSKPPGSSSRPSSGQDLFLLPSDPFVDLASGQVPLPPARRLPGENVKTNRTSQDYDQLPSCSDGSQAPARPPKPRPRRTAPEIHHRKPHGPEAALENVDAKIAKLMGEGYAFEEVKRALEIAQNNVEVARSILREFAFPPPVSPRLNL
# Variants of: B1
# Details: with cd2ap_human CD2AP
row,effect of a mutation on the interaction,Variant
1,decreasing interaction,K907L

# Variants of: B1
# Details: with sh3k1_human SH3KBP1, Q96B97
# Sequence of sh3k1_human SH3KBP1, Q96B97 (Q96B97 whole entry): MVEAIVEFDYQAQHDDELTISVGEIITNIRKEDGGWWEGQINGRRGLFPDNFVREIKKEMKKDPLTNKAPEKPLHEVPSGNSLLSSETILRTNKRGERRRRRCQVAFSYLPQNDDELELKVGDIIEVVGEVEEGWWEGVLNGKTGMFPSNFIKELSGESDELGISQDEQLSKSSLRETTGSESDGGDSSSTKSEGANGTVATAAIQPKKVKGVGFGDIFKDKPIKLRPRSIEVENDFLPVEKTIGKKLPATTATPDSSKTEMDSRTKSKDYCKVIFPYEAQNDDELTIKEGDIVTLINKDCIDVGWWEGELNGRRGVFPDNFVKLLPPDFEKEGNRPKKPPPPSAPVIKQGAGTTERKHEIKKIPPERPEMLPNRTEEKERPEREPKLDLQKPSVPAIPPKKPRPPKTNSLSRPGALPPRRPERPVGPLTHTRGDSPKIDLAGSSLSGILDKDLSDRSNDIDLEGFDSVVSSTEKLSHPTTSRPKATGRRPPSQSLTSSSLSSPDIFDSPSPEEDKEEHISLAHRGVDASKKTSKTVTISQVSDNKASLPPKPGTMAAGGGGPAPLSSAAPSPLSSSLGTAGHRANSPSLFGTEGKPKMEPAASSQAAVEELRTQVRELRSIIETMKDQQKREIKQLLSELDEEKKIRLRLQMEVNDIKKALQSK
row,effect of a mutation on the interaction,Variant
1,decreasing interaction,K907L

# Variants of: B1
# Details: with sh3k1_human SH3KBP1, Q96B97
# Remark: another data set of the same source
row,effect of a mutation on the interaction,Variant
1,decreasing interaction,R911A

# Variants of: B1
# Details: with cd2ap_human CD2AP
# Remark: another data set of the same source
row,effect of a mutation on the interaction,Variant
1,decreasing interaction,R911A

# Variants of: B1
# Details: with cd2ap_human CD2AP
# Remark: another data set of the same source
row,effect of a mutation on the interaction,Variant
1,decreasing interaction,R904G

# Variants of: B1
# Details: with sh3k1_human SH3KBP1, Q96B97
# Remark: another data set of the same source
row,effect of a mutation on the interaction,Variant
1,decreasing interaction,R904G

# Reference: IntAct's records for PubMed 23663663
